Values of other authors in publication PMC7212196.

Molecular target: soluble IL-6 receptor (Homo sapiens) (UniProt P08887)
UniProt P08887, sequence (P08887 20-355): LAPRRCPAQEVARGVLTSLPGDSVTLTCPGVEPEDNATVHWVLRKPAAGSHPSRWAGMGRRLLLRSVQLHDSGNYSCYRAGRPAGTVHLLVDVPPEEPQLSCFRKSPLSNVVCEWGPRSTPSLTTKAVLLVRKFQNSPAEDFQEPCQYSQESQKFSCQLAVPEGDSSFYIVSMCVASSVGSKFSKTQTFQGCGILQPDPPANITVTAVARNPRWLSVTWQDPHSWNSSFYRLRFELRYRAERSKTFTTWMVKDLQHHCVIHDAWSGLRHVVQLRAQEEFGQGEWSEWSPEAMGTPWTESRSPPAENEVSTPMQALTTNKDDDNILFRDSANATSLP

IL-6, sequence (P05231 30-212): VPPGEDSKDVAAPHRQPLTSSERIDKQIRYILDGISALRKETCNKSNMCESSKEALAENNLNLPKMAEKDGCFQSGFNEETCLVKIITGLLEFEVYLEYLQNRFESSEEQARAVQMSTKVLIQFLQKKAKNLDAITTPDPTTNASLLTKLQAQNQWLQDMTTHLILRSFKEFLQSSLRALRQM

Kd: 5 nM
Substance: IL-6 (from UniProt P05231)
